Measured values as given in the RNAGym collection of RNA variant scans (doi:10.7554/elife.80360).

B1: HDV Ribozyme (parent)
chain: GGCCGGCAUGGUCCCAGCCUCCUCGCUGGCGCCGGCUGGGCAACAUUCCGAGGGGACCGUCCCCUCGGUAAUGGCGAAUGGGACCCA

Variants of: B1
Test: self-cleavage, relative activity (ratio to wild type); higher = more cleavage; co-transcriptional

Going from GGCCGACAUGGUCCCAGCCUCCUCGGUGGCGCCGGCUGGGCAACAUUCCGAGGGGACCGUCCCCUCGGUAAUGGCGAAUGGGACCCA to GGCCGACAUGGUCACAGCCUCCUCGCUGGCGCCGGCUGGGCAACAUUCCGAGGGGACCGUCCCCUCGGUAAUGGCGAAUGGGACCCA, the self-cleavage falls from 0.856 to 0.237.

Compared with GGCCGACAUGGUCGCAGCCUCCUCGCUGGCGCCGGCUGGGCAACAUUCCGAGGGGACCGUCCCCUCGGUAAUGGCGAAUGGGACCCA, GGCCGACAUGGUCCCAGACUCCUCGCUGGCGCCGGCUGGGCAACAUUCCGAGGGGACCGUCCCCUCGGUAAUGGCGAAUGGGACCCA is lower in self-cleavage: 0.287 for the first, 0 for the second.

Compared with GGCCGACAUGGUCCCAGGCUCCUCGCUGGCGCCGGCUGGGCAACAUUCCGAGGGGACCGUCCCCUCGGUAAUGGCGAAUGGGACCCA, GGCCGACAUGGUCCCAGUCUCCUCGCUGGCGCCGGCUGGGCAACAUUCCGAGGGGACCGUCCCCUCGGUAAUGGCGAAUGGGACCCA is higher in self-cleavage: 0.115 for the first, 0.148 for the second.

Compared with GGCCGACAUGGUCCCAGCCUCCUCGCUGGCGCCGGCUGGGCAACAUUCAGAGGGGACCGUCCCCUCGGUAAUGGCGAAUGGGACCCA, GGCCGACAUGGUCCCAGCCUCCUCGCUGGCGCCGGCUGGGCAACAUUCGGAGGGGACCGUCCCCUCGGUAAUGGCGAAUGGGACCCA is lower in self-cleavage: 0.566 for the first, 0.222 for the second.

First: GGCCGACAUGGUCCCAGCCUCCUCGCUGGUGCCGGCUGGGCAACAUUCCGAGGGGACCGUCCCCUCGGUAAUGGCGAAUGGGACCCA
Second: GGCCGACAUGGUCCCAGCCUCCUCGCUGGAGCCGGCUGGGCAACAUUCCGAGGGGACCGUCCCCUCGGUAAUGGCGAAUGGGACCCA
The self-cleavage of the first is higher: 0.432 for the first, 0.0421 for the second.

First: GGCCGACAUGGUCCCAGCCUCCUCGCUGGCGCCGGCUGGGCAACAUUACGAGGGGACCGUCCCCUCGGUAAUGGCGAAUGGGACCCA
Second: GGCCGACAUGGUCCCAGCCUCCUCGCUGGCGCCGGCUGGGCAACAUUGCGAGGGGACCGUCCCCUCGGUAAUGGCGAAUGGGACCCA
The self-cleavage of the first is lower: 0.465 for the first, 0.657 for the second.

First: GGCCGACAUGGUCCCAGCCUCCUCGCUGGCGCCGGCUGGGCAACAUUUCGAGGGGACCGUCCCCUCGGUAAUGGCGAAUGGGACCCA
Second: GGCCGACAUGGUCCCAGCCUCUUCGCUGGCGCCGGCUGGGCAACAUUCCGAGGGGACCGUCCCCUCGGUAAUGGCGAAUGGGACCCA
The self-cleavage of the first is higher: 0.759 for the first, 0.4 for the second.

First: GGCCGACAUGGUCCCAGCCUCAUCGCUGGCGCCGGCUGGGCAACAUUCCGAGGGGACCGUCCCCUCGGUAAUGGCGAAUGGGACCCA
Second: GGCCGACAUGGUCCCAGCCUCCUCGCUGGCGCCGGCUGGGCAAAAUUCCGAGGGGACCGUCCCCUCGGUAAUGGCGAAUGGGACCCA
The self-cleavage of the first is higher: 0.208 for the first, 0.201 for the second.

Going from GGCCGACAUGGUCCCAGCCUCCUCGCUGGCGCCGGCUGGGCAAUAUUCCGAGGGGACCGUCCCCUCGGUAAUGGCGAAUGGGACCCA to GGCCGACAUGGUCCAAGCCUCCUCGCUGGCGCCGGCUGGGCAACAUUCCGAGGGGACCGUCCCCUCGGUAAUGGCGAAUGGGACCCA, the self-cleavage falls from 0.457 to 0.375.

First: GGCCGACAUGGUCCUAGCCUCCUCGCUGGCGCCGGCUGGGCAACAUUCCGAGGGGACCGUCCCCUCGGUAAUGGCGAAUGGGACCCA
Second: GGCCGACAUGGUCCCAGCCUCCUCGCUGGCGCCGGCUGGGCAACAUUCCGAGGGGACCGUCCCCUCGGUAAUGGCGAAUGGGACCCC
The self-cleavage of the first is lower: 0.431 for the first, 0.635 for the second.

First: GGCCGACAUGGUCCCAGCCUCCUUGCUGGCGCCGGCUGGGCAACAUUCCGAGGGGACCGUCCCCUCGGUAAUGGCGAAUGGGACCCA
Second: GGCCGACAUGGUCCCAGCCUCCUAGCUGGCGCCGGCUGGGCAACAUUCCGAGGGGACCGUCCCCUCGGUAAUGGCGAAUGGGACCCA
The self-cleavage of the first is higher: 0.308 for the first, 0.283 for the second.

Going from GGCCGACAUGGUCCCAGCGUCCUCGCUGGCGCCGGCUGGGCAACAUUCCGAGGGGACCGUCCCCUCGGUAAUGGCGAAUGGGACCCA to GGCCGACAUGGUCCCAGCCUCCUCGCUGGCGCGGGCUGGGCAACAUUCCGAGGGGACCGUCCCCUCGGUAAUGGCGAAUGGGACCCA, the self-cleavage rises from 0 to 0.0536.

Going from GGCCGACAUGGUCCCAGCCUUCUCGCUGGCGCCGGCUGGGCAACAUUCCGAGGGGACCGUCCCCUCGGUAAUGGCGAAUGGGACCCA to GGCCGACAUGGUCCCAGCCUGCUCGCUGGCGCCGGCUGGGCAACAUUCCGAGGGGACCGUCCCCUCGGUAAUGGCGAAUGGGACCCA, the self-cleavage rises from 0.0665 to 0.203.

Compared with GGCCGACAUGGUCCCAGCCUCCUCGCUGGCGGCGGCUGGGCAACAUUCCGAGGGGACCGUCCCCUCGGUAAUGGCGAAUGGGACCCA, GGCCGACAUGGUCCCAGCCUCCUCGCUGGCGUCGGCUGGGCAACAUUCCGAGGGGACCGUCCCCUCGGUAAUGGCGAAUGGGACCCA is higher in self-cleavage: 0.138 for the first, 1.12 for the second.

Going from GGCCGACAUGGUACCAGCCUCCUCGCUGGCGCCGGCUGGGCAACAUUCCGAGGGGACCGUCCCCUCGGUAAUGGCGAAUGGGACCCA to GGCCGACAUGGUCCCAGCCUCCUCGCUGGCGCCGGUUGGGCAACAUUCCGAGGGGACCGUCCCCUCGGUAAUGGCGAAUGGGACCCA, the self-cleavage rises from 0.185 to 0.286.

Going from GGCCGACAUGGUCCCAGCCUCCUCGCUGGCGCCGGAUGGGCAACAUUCCGAGGGGACCGUCCCCUCGGUAAUGGCGAAUGGGACCCA to GGCCGACAUGGUCCCAGCCUCCUCGCUGGCGCCGGGUGGGCAACAUUCCGAGGGGACCGUCCCCUCGGUAAUGGCGAAUGGGACCCA, the self-cleavage rises from 0 to 0.0811.
